Assay results taken from patent US20110256180A1 (CHILDREN S HOSPITAL AND RESEARCH CENTER AT OAKLAND, published 2011).

Molecular target: T1, mouse factor H (native fH of wild-type mice) (mouse, UniProt P06909 19-1234)
T1 construct: also called mouse fH
Assay: ELISA, fHbp on plate, mouse serum

T1 sequence (P06909 19-1234): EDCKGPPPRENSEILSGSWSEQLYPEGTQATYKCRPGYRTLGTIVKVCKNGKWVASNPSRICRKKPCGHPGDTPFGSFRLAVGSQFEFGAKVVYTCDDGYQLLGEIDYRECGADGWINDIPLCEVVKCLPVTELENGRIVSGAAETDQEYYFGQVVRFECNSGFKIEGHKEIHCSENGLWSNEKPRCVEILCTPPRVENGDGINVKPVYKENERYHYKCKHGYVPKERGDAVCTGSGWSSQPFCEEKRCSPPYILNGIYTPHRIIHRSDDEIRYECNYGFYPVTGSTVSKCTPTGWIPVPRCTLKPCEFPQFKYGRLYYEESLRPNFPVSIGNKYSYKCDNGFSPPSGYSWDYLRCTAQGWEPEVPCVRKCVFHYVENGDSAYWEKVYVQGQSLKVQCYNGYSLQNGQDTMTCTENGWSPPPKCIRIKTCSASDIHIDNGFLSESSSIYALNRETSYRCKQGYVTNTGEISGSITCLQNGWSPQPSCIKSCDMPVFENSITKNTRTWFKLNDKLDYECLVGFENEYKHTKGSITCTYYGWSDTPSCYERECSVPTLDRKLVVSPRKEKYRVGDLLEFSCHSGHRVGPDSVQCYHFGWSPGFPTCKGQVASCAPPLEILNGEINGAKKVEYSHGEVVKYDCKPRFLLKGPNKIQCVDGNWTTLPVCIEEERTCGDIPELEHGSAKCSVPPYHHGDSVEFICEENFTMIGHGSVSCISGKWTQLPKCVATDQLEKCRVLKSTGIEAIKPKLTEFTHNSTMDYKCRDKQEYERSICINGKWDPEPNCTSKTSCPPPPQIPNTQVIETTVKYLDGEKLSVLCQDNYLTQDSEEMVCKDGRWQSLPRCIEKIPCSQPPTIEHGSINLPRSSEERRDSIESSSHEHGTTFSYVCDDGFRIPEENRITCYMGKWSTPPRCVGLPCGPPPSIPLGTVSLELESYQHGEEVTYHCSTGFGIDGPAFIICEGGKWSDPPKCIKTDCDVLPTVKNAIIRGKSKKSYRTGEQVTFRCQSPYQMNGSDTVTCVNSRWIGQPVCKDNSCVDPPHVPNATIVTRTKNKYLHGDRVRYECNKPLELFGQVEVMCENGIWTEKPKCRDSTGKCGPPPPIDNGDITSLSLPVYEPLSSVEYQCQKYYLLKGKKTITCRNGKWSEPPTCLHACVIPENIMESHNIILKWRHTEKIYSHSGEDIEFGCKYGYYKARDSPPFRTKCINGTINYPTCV

B1: fHbp ID 1, wild-type recombinant factor H binding protein (strain MC58, variant 1, modular group I) (other)
chain: CSSGGGGVAADIGAGLADALTAPLDHKDKGLQSLTLDQSVRKNEKLKLAAQGAEKTYGNGDSLNTGKLKNDKVSRFDFIRQIEVDGQLITLESGEFQVYKQSHSALTAFQTEQIQDSEHSGKMVAKRQFRIGDIAGEHTSFDKLPEGGRATYRGTAFGSDDAGGKLTYTIDFAAKQGNGKIEHLKSPELNVDLAAADIKPDGKRHAVISGSVLYNQAEKGSYSLGIFGGKAQEVAGSAEVKTVNGIRHIGLAAKQ
notes: also called WT fHbp ID 1; Pep1
B1: no binding (tested: 1:100 dilution of serum).
